According to publication PMC11091121, “The structural basis for 2′−5′/3′−5′-cGAMP synthesis by cGAS”:

Assays:
WT-mcGAScat = WT-mcGAScat (mouse, UniProt Q8C6L5 147-507); assay: crystal structure; 2'-dATP; FA: 5 nM FAM-dsDNA, as previously reported (reaction buffer likely 25 mM Tris-acetate pH 7.4, 125 mM KAc, 5 mM MgAc2, 1 mM TCEP, 5% glycerol, 25 C); crystals: 0.2 M ammonium acetate, 32% MPD, 0.1 M Bis-Tris pH 6.5, 4 C; conditions: protein: recombinant; tags: none left (N-terminal 6xHis-MBP removed by TEV); chain copies: 2; blunt; self-complementary, 2 copies of the strand
Sequence of WT-mcGAScat (Q8C6L5 147-507): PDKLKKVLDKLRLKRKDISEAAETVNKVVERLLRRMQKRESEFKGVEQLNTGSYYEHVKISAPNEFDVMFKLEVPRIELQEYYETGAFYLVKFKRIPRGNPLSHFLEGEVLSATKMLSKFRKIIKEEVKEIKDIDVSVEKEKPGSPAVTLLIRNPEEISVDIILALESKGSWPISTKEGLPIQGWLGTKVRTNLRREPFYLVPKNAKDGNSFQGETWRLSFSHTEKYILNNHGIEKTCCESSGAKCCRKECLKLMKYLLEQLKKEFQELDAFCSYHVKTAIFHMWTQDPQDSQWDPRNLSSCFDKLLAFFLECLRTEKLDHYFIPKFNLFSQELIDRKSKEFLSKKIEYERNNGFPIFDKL

QN-mcGAScat = QN-mcGAScat (mouse, UniProt Q8C6L5 147-507, E211Q;D213N); assay: crystal structure; ATP, GTP, Mg2+; FA: 5 nM FAM-dsDNA, as previously reported (reaction buffer likely 25 mM Tris-acetate pH 7.4, 125 mM KAc, 5 mM MgAc2, 1 mM TCEP, 5% glycerol, 25 C); crystals: 0.2 M ammonium acetate, 32% MPD, 0.1 M Bis-Tris pH 6.5, 4 C; conditions: protein: recombinant; tags: none left (N-terminal 6xHis-MBP removed by TEV); chain copies: 2; blunt; self-complementary, 2 copies of the strand
Sequence of QN-mcGAScat (Q8C6L5 147-507 E211Q/D213N): as the sequence (Q8C6L5 147-507) above, with E65Q, D67N counted along it

B1: 18-bp palindromic dsDNA (dsDNA)
DNA 1: ATCTGTACATGTACAGAT
DNA 2: ATCTGTACATGTACAGAT
B1: binds (WT-mcGAScat); binds (QN-mcGAScat).
